According to US20210363241A1 (Eli Lilly, published 2021):

What was measured:
[1] = molecular target: T1, Human CD226 on the cell surface of stably transfected HEK 293 cells (human, UniProt Q15762 19-336); experiment: cell-based or functional assay
T1 sequence: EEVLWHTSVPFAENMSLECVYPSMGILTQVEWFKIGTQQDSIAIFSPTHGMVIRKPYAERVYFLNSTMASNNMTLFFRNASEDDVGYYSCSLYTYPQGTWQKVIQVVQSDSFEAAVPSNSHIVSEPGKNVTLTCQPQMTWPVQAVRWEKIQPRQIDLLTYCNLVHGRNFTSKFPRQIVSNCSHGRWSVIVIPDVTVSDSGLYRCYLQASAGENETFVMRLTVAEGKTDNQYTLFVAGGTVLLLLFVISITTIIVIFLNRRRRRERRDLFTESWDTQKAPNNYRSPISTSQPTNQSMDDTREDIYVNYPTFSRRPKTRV

[2] = molecular target: T2, Recombinant human CD226-Fc fusion protein (R&D Systems) (human); experiment: ELISA, plate coated with human CD226-Fc, anti-human F(ab')2-HRP detection
T2 construct: The reagent was bought from R&D Systems; also called Human CD226-ECD-Fc; Human CD226-Extracellular Domain-Fc
Description: The ability of the antibodies disclosed herein to bind human CD226 can be measured by ELISA. To measure binding to human CD226, a 96-well plate (Immulon 2HB) is coated with human CD226-Fc (R&D Systems) overnight at 4° C. Wells are blocked for 2 h with blocking buffer (PBS containing 1% bovine serum albumin). Wells are washed three times with PBS containing 0.1% Tween-20. Antibody 1 or control IgG (100 μL) is then added at different concentrations and incubated at room temperature for 1 h. After washing, the plate is incubated with 100 μL of goat anti-human IgG F(ab′)2-HRP conjugate (Jackson Immuno Research Laboratories) at room temperature for 45 minutes. The plates are washed and then incubated with 100 μL of 3,3′, 5,5′-tetra-methylbenzidine. The absorbance at 450 nm is read on a SpectraMax® microplate reader. The half maximal effective concentration (EC50) is calculated using GraphPad Prism 7 software.

[3] = molecular target: T1, Human CD226 on the cell surface of …; experiment: flow cytometry on HEK 293 cells expressing human CD226, antibody at 0.14 ug/mL
Description: (§1) The ability of the antibodies disclosed herein to bind to cell surface Human CD226 can be measured using a flow cytometric assay. Human CD226 expressing stable cells are generated by transfecting human-CD226 plasmid DNA into human HEK 293 cells (ATCC) using Fugene-6 reagent (Promega) according to the manufacturer's protocol. Stable cells are selected using 0.5 μg/mL puromycin in Dulbecoo's Modified Eagle's Medium containing 10% fetal bovine serum and 1% GlutaMAX™. For flow cytometry, confluent adherent cells are detached using Gibco® Cell Dissociation Buffer (Life Technologies), washed with complete media, then resuspend in FACS buffer (phosphate buffered saline containing 2.5% fetal bovine serum+1 mM EDTA) and then transferred into a 96 well V bottom plate at a density of 5×10⁴ cells/well. […]
(§2) After washing in FACS buffer, secondary antibody allophycocyanin (APC) conjugated goat anti-human IgG, F(ab′)2 fragment specific antibody (Jackson ImmunoResearch Laboratories) is added at a 1:200 dilution and cells are incubated at room temperature for 30 minutes. […] Flow cytometry data is analyzed using FlowJo® Software. Median fluorescence intensity (MFI) ratio is calculated as the (MFI of Experimental antibody)/(MFI of the control IgG).

[4] = molecular target: T3, Cynomolgus monkey CD226 on the cell surface of stably transfected HEK 293 cells (cynomolgus monkey, UniProt A0A2K5W1Z6 19-336); experiment: flow cytometry on HEK 293 cells expressing cynomolgus CD226, antibody at 0.14 ug/mL
T3 construct: whole, on cells; also called Cyno-CD226
T3 sequence: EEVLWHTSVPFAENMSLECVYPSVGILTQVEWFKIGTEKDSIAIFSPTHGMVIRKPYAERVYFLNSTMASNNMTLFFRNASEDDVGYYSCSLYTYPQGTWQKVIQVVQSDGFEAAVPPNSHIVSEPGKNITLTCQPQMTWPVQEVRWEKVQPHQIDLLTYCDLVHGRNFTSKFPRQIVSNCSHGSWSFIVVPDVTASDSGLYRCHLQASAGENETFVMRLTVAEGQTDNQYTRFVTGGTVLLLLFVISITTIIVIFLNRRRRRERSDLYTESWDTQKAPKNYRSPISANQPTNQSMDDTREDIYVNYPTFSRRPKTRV
Description: as §1, with “surface cynomolgus monkey” for “surface Human”, “assay. Cynomolgus monkey” for “assay. Human”, “transfecting Cyno-CD226” for “transfecting human-CD226”
as §2

[5] = molecular target: T2, Recombinant human CD226-Fc fusion …; experiment: SPR (Biacore T200), human CD226-Fc amine-coupled to chip, antibody injected at 1.95-1000 nM, 25 C, steady state fit
Description: A Biacore T200 instrument can be used to measure the kinetics of immobilized human CD226-Fc binding to Antibody 1. Recombinant human CD226-Fc fusion protein (R&D Systems) is covalently immobilized to a CMS sensor chip via amine coupling (GE Healthcare). CD226 antibody testing is performed at a flow rate of 100 μL/min in HBS-EP+buffer. Samples are injected at various concentrations and measurements obtained at 25° C. The surface is regenerated after each sample injection with 10 mM Glycine-HCl pH 2.1 at flow rate of 10 μL/min for 30 seconds and then stabilized with buffer for 10 seconds. Sensorgrams of concentrations ranging from 1.95 nM to 1000 nM are evaluated using Biacore T200 software. The equilibrium dissociation constant (KD) or binding affinity constant is calculated from steady state fit. In experiments performed essentially as described above, Antibody 1 binds to human CD226 with the affinity constants illustrated in Table 2.

- NF-kB luciferase reporter EC50 [1]: 4.11 nM
- EC50 [2]: 0.1 nM
- MFI ratio (MFI of antibody / MFI of control IgG) [3]: 851
- MFI ratio (MFI of antibody / MFI of control IgG) [4]: 2920
- Kd [5]: 334 nM
B1: Antibody 1 (antibody, human IgG1, kappa, V domains shown)
VH: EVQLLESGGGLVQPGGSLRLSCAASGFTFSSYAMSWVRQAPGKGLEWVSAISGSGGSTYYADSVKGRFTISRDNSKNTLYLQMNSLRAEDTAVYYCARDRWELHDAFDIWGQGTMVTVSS
VL: VIWMTQSPSSLSASVGDRVTITCRASQSISSYLNWYQQKPGKAPRLLIYRASTLQSGVPSRFSGDGSGTHFTLTISSLQPEDFATYYCQQSYSTPDTFGQGTKVEIKR
notes: also called anti-human CD226 agonist antibody; human anti-human CD226 IgG1-effector null (IgG1-EN) antibody
